Data published in patent publication US20250282887A1 (Amgen, published 2025).
Changes are numbered by the printed parent chain.

T1: Human MAGEB2 (Melanoma-associated antigen B2) (human, UniProt O15479 1-319)
T1 construct: Intracellular antigen detected by IHC in FFPE material: CHO cells transfected with human MAGEB2 (mCherry vector with Myc/DDK tags, or ORF without tags)
T1 sequence: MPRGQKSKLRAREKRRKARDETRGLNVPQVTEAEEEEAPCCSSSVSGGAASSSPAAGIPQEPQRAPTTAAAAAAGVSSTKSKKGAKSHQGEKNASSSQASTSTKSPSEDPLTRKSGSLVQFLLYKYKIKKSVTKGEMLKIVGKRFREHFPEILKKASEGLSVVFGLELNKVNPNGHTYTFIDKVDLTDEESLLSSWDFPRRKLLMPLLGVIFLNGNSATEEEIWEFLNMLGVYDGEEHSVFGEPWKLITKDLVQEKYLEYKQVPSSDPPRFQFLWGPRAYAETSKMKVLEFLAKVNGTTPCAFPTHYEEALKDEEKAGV

T2: human MAGEA1 (human, UniProt P43355 1-309)
T2 construct: whole, on cells; FFPE cell pellets
T2 sequence (looked up): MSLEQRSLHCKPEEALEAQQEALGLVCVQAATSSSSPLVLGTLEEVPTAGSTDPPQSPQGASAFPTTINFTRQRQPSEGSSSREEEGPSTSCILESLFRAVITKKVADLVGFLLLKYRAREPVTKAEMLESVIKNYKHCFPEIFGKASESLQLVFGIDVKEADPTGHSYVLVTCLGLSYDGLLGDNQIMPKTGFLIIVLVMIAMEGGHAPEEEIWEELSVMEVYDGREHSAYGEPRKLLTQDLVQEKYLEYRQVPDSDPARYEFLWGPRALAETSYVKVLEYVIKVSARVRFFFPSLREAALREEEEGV

T3: human MAGEB6 (human, UniProt Q8N7X4 1-407)
T3 construct: whole, on cells; FFPE cell pellets
T3 sequence (looked up): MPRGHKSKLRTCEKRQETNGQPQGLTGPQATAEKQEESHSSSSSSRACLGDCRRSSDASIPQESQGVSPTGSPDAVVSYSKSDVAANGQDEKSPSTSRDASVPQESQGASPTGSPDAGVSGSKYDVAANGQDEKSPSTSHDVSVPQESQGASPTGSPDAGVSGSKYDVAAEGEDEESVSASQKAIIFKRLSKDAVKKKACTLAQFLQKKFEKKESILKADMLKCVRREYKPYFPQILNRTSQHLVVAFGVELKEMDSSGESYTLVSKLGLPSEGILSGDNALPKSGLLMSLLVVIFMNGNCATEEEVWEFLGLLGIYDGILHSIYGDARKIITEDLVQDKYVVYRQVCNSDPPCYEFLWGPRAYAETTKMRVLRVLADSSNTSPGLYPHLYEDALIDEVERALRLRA

B1: 1I14 (antibody, V domains shown)
VH: QSVEESGGRLVTPGTPLTLTCTISGFSLSSYAMSWVRQAPGKGLEWIGSIGGGGSAVYASWAKGRFTISKTSTTVDLRITSPTTEDTAMYFCGRGFYSIDLWGPGTLVTVSS
VL: DVVMTQTPASVEATVGGTVTIKCQSSQSVYDNNALAWYQQNAGQRPRLLIYGASTLASGVPSRFSASGSGTEFTLTISDLECADAATYYCQCTYYVSSYQNDFGGGTEVVVKG
notes: also called MAGE-B2 (1i14)
B2: 1C3 (antibody, V domains shown)
VH: QSLEESGGGLVQPEGSLTLTCTAFGVTLTNYYICWVRQAPGKGLEWVGCIDNANGRTYYASWAKGRFTISKTSSTTGTLQMTSLTAADTATYFCARSLATPLWGPGTLVTVSS
VL: DIVMTQTPSSVEAAVGGTVTIKCQASQNISSYLAWYQQKPGQPPKLLIYRASTLASGVPSRFKGSGSGTQFTLTISDLECADAATYYCQSYDDSRSSNFFYAFGGGTEVVVKG
notes: also called MAGE-B2 (IC3); anti-MAGEB2 antibody 1C3
B3: 4G17 (antibody, IgG1, V domains shown)
VH: B2 VH with F24S, T29S, V47I, A53V
VL: DIVMTQTPASVEAAVGGTVTIKCQASQNIDSYLAWYQQKPGQPPKLLIYRASTLASGVPSRFKGSGSGTEFTLTISDLECADAATYYCQSYDDSRSSSFFYGFGGGTEVVVK
notes: Rabbit monoclonal IgG1; Tested as supernatant and as small batch purified antibody; also called MAGE-B2 (4G17); anti-MAGEB2 antibody 4G17
B4: 1J15 (antibody, IgG1, V domains shown)
VH: B2 VH with V26F, T29N, V47I, G48A, G77V, A99S
VL: B3 VL with N28S, D30S, A34S, K63R, E70Q, R95S, S96D, S97N, S98N, K112R
notes: Rabbit monoclonal IgG1; Tested as supernatant and as small batch purified antibody; also called MAGE-B2 (IJ15); anti-MAGEB2 antibody 1J15

Assays:
[1] = molecular target: T1, Human MAGEB2 (Melanoma-associated …); assay: IHC on FFPE SCaBER cells (endogenous MAGEB2)
Description: (§1) FFPE samples were sectioned at 4 μm and mounted on positive charged glass slides. After mounting, paraffin sections were air-dried at room temperature. FFPE TMA samples were received as freshly sectioned and mounted on glass slides. The fully automated IHC assay was performed on a Discovery Ultra Stainer (Ventana Medical Systems, Tucson, AZ) using Ventana Anti-Rabbit HQ (cat #760-4815), Ventana Anti-HQ HRP (cat #760-4820), and Ventana Antibody Diluent with Casein (cat #760-219) (Ventana Medical Systems, Tucson, AZ). The slides were baked on the Discovery Ultra Stainer at 60° C. for 8 minutes, de-paraffinized with Ventana Discovery wash (cat #950-510) for 3 cycles (8 minutes each) at 69° C., and underwent cell conditioning (target retrieval) at 95° C. for 16 minutes (for cell arrays) or 32 minutes (tissues or TMAs) in CC1 buffer (cat #950-500). Following this, slides were incubated with Background Sniper (cat #BS966M, Biocare Medical, Pacheco, CA) in a Ventana Option Prep kit (cat #771-751) for 28 minutes, incubated with CM inhibitor (a part of the Ventana DAB kit cat #760-159) for 12 minutes, and incubated for 1 h at RT with MAGE-B2 antibody diluted with Ventana diluent with Casein in a Ventana Prep kit (cat #770-001) (working concentration at 0.1 μg/ml for cell pellet, or 1-5 ug/ml for tissues) or with a matched concentration of isotype control Rabbit IgG1 antibody. Following this, slides were incubated with the Ventana Anti-Rabbit HQ (cat #760-4815) for 28 minutes at RT, Ventana Anti-HQ HRP (cat #760-4820) for 28 minutes at RT, and signals detected with Ventana DAB chromogen kit (cat #760-159) for 5 minutes at RT. Slides were counterstained with Ventana Hematoxylin II (cat #5266726001) for 8 minutes and Ventana Bluing reagent (cat #526676900) for 4 minutes. Slides were coverslipped and digitized using an Aperio AT2 scanner (Leica Biosystems Inc, Buffalo Grove, IL).

[2] = molecular target: T1, Human MAGEB2 (Melanoma-associated …); assay: IHC on FFPE VMRC-LCD cells (endogenous MAGEB2)
Description: as §1

human MAGEA1 = molecular target: T2, human MAGEA1; assay: IHC, FFPE CHO cells transfected with human MAGEA1
Description: as §1

human MAGEB6 = molecular target: T3, human MAGEB6; assay: IHC, FFPE CHO cells transfected with human MAGEB6
Description: as §1

Binder | IHC % Frequency [1] | IHC Intensity [1] | IHC % Frequency [2] | IHC Intensity [2] | binding result (human MAGEA1) | binding result (human MAGEB6)
B1 | 0% | 0 | 0% | 0 | no binding (tested: 0.1 µg/ml) | no binding (tested: 0.1 µg/ml)
B2 | 70% | 2 | 0% | 0 | no binding (tested: 0.1 µg/ml) | no binding (tested: 0.1 µg/ml)
B3 | 70% | 2 | 0% | 0 | no binding (tested: 0.1 µg/ml) | no binding (tested: 0.1 µg/ml)
B4 | 50% | 2 | 0% | 0 | no binding (tested: 0.1 µg/ml) | no binding (tested: 0.1 µg/ml)
